Laboratory results published in patent US20200079833A1 (AstraZeneca / MedImmune, published 2020).
Starred links: 1 amine or outer side, 2 acyl side, 3 side chain; linkers in the order of their positions; H or OH if unused. Non-standard residues stand in square brackets, D forms with d. Groups on a side chain read outwards from the residue. No end group written: not given here. *: point of attachment. γGlu = O=C(O)[C@H](CCC(=O)[*:2])N[*:1]; Palmitoyl = CCCCCCCCCCCCCCCC(=O)*; αMeF = C[C@](N)(Cc1ccccc1)C(=O)O; αMeK = C[C@](N)(CCCCN)C(=O)O; αMeS = C[C@](N)(CO)C(=O)O; Aib = CC(C)(N)C(=O)O

T1: glucose-dependent insulinotropic peptide (gastric inhibitory polypeptide) receptor (human, UniProt P48546 22-466)
T1 sequence (looked up): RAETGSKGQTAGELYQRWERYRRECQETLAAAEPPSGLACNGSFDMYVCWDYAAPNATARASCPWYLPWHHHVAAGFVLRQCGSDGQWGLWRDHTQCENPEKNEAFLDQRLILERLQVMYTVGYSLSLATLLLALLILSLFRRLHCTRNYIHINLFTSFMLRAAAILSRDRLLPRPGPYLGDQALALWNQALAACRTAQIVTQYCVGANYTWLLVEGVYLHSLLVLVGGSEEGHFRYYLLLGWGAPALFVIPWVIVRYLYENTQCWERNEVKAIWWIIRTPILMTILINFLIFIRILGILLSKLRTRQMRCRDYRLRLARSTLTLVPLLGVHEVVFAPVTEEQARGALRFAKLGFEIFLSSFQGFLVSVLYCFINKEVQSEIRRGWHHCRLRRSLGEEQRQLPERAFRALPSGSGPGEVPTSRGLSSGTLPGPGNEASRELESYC

B1: SEQ ID NO 75 (peptide)
peptide: H[Aib]EGS[αMeF]TSDV[αMeS]S[αMeF]LEGEAA[αMeK]E[αMeF]IAK([γGlu-Palmitoyl])VV[αMeK]GG-NH2
modifications: N-terminus assumed
SMILES: CCCCCCCCCCCCCCCC(=O)N[C@@H](CCC(=O)NCCCC[C@H](NC(=O)[C@H](C)NC(=O)[C@@H](NC(=O)[C@](C)(Cc1ccccc1)NC(=O)[C@H](CCC(=O)O)NC(=O)[C@](C)(CCCCN)NC(=O)[C@H](C)NC(=O)[C@H](C)NC(=O)[C@H](CCC(=O)O)NC(=O)CNC(=O)[C@H](CCC(=O)O)NC(=O)[C@H](CC(C)C)NC(=O)[C@](C)(Cc1ccccc1)NC(=O)[C@H](CO)NC(=O)[C@](C)(CO)NC(=O)[C@@H](NC(=O)[C@H](CC(=O)O)NC(=O)[C@H](CO)NC(=O)[C@@H](NC(=O)[C@](C)(Cc1ccccc1)NC(=O)[C@H](CO)NC(=O)CNC(=O)[C@H](CCC(=O)O)NC(=O)C(C)(C)NC(=O)[C@@H](N)Cc1c[nH]cn1)[C@@H](C)O)C(C)C)[C@@H](C)CC)C(=O)N[C@H](C(=O)N[C@H](C(=O)N[C@@](C)(CCCCN)C(=O)NCC(=O)NCC(N)=O)C(C)C)C(C)C)C(=O)O
B2: SEQ ID NO 74 (peptide)
peptide: H[Aib]EGS[αMeF]TSDV[αMeS]S[αMeF]LEGEAA[αMeK]E[αMeF]IA[αMeF]K([γGlu-Palmitoyl])V[αMeK]GG-NH2
modifications: N-terminus assumed
SMILES: CCCCCCCCCCCCCCCC(=O)N[C@@H](CCC(=O)NCCCC[C@H](NC(=O)[C@](C)(Cc1ccccc1)NC(=O)[C@H](C)NC(=O)[C@@H](NC(=O)[C@](C)(Cc1ccccc1)NC(=O)[C@H](CCC(=O)O)NC(=O)[C@](C)(CCCCN)NC(=O)[C@H](C)NC(=O)[C@H](C)NC(=O)[C@H](CCC(=O)O)NC(=O)CNC(=O)[C@H](CCC(=O)O)NC(=O)[C@H](CC(C)C)NC(=O)[C@](C)(Cc1ccccc1)NC(=O)[C@H](CO)NC(=O)[C@](C)(CO)NC(=O)[C@@H](NC(=O)[C@H](CC(=O)O)NC(=O)[C@H](CO)NC(=O)[C@@H](NC(=O)[C@](C)(Cc1ccccc1)NC(=O)[C@H](CO)NC(=O)CNC(=O)[C@H](CCC(=O)O)NC(=O)C(C)(C)NC(=O)[C@@H](N)Cc1c[nH]cn1)[C@@H](C)O)C(C)C)[C@@H](C)CC)C(=O)N[C@H](C(=O)N[C@@](C)(CCCCN)C(=O)NCC(=O)NCC(N)=O)C(C)C)C(=O)O
B3: SEQ ID NO 11 (peptide)
peptide: H[Aib]EGS[αMeF]TSDVSS[αMeF]LEGEAA[αMeK]E[αMeF]VA[αMeF]VV[αMeK]GG-NH2
modifications: N-terminus assumed
SMILES: CC(C)C[C@H](NC(=O)[C@](C)(Cc1ccccc1)NC(=O)[C@H](CO)NC(=O)[C@H](CO)NC(=O)[C@@H](NC(=O)[C@H](CC(=O)O)NC(=O)[C@H](CO)NC(=O)[C@@H](NC(=O)[C@](C)(Cc1ccccc1)NC(=O)[C@H](CO)NC(=O)CNC(=O)[C@H](CCC(=O)O)NC(=O)C(C)(C)NC(=O)[C@@H](N)Cc1c[nH]cn1)[C@@H](C)O)C(C)C)C(=O)N[C@@H](CCC(=O)O)C(=O)NCC(=O)N[C@@H](CCC(=O)O)C(=O)N[C@@H](C)C(=O)N[C@@H](C)C(=O)N[C@@](C)(CCCCN)C(=O)N[C@@H](CCC(=O)O)C(=O)N[C@@](C)(Cc1ccccc1)C(=O)N[C@H](C(=O)N[C@@H](C)C(=O)N[C@@](C)(Cc1ccccc1)C(=O)N[C@H](C(=O)N[C@H](C(=O)N[C@@](C)(CCCCN)C(=O)NCC(=O)NCC(N)=O)C(C)C)C(C)C)C(C)C
B4: SEQ ID NO 10 (peptide)
peptide: H[Aib]EGS[αMeF]TSDVSS[αMeF]VEGEAA[αMeK]E[αMeF]IA[αMeF]VV[αMeK]GG-NH2
modifications: N-terminus assumed
SMILES: CC[C@H](C)[C@H](NC(=O)[C@](C)(Cc1ccccc1)NC(=O)[C@H](CCC(=O)O)NC(=O)[C@](C)(CCCCN)NC(=O)[C@H](C)NC(=O)[C@H](C)NC(=O)[C@H](CCC(=O)O)NC(=O)CNC(=O)[C@H](CCC(=O)O)NC(=O)[C@@H](NC(=O)[C@](C)(Cc1ccccc1)NC(=O)[C@H](CO)NC(=O)[C@H](CO)NC(=O)[C@@H](NC(=O)[C@H](CC(=O)O)NC(=O)[C@H](CO)NC(=O)[C@@H](NC(=O)[C@](C)(Cc1ccccc1)NC(=O)[C@H](CO)NC(=O)CNC(=O)[C@H](CCC(=O)O)NC(=O)C(C)(C)NC(=O)[C@@H](N)Cc1c[nH]cn1)[C@@H](C)O)C(C)C)C(C)C)C(=O)N[C@@H](C)C(=O)N[C@@](C)(Cc1ccccc1)C(=O)N[C@H](C(=O)N[C@H](C(=O)N[C@@](C)(CCCCN)C(=O)NCC(=O)NCC(N)=O)C(C)C)C(C)C
B5: SEQ ID NO 76 (peptide)
peptide: H[Aib]EGS[αMeF]TSDV[αMeS]S[αMeF]LEGEAA[αMeK]E[αMeF]IK([γGlu-Palmitoyl])[αMeF]VV[αMeK]GG-NH2
modifications: N-terminus assumed
SMILES: CCCCCCCCCCCCCCCC(=O)N[C@@H](CCC(=O)NCCCC[C@H](NC(=O)[C@@H](NC(=O)[C@](C)(Cc1ccccc1)NC(=O)[C@H](CCC(=O)O)NC(=O)[C@](C)(CCCCN)NC(=O)[C@H](C)NC(=O)[C@H](C)NC(=O)[C@H](CCC(=O)O)NC(=O)CNC(=O)[C@H](CCC(=O)O)NC(=O)[C@H](CC(C)C)NC(=O)[C@](C)(Cc1ccccc1)NC(=O)[C@H](CO)NC(=O)[C@](C)(CO)NC(=O)[C@@H](NC(=O)[C@H](CC(=O)O)NC(=O)[C@H](CO)NC(=O)[C@@H](NC(=O)[C@](C)(Cc1ccccc1)NC(=O)[C@H](CO)NC(=O)CNC(=O)[C@H](CCC(=O)O)NC(=O)C(C)(C)NC(=O)[C@@H](N)Cc1c[nH]cn1)[C@@H](C)O)C(C)C)[C@@H](C)CC)C(=O)N[C@@](C)(Cc1ccccc1)C(=O)N[C@H](C(=O)N[C@H](C(=O)N[C@@](C)(CCCCN)C(=O)NCC(=O)NCC(N)=O)C(C)C)C(C)C)C(=O)O
B6: SEQ ID NO 12 (peptide)
peptide: H[Aib]EGS[αMeF]SSEVSS[αMeF]VEGEAA[αMeK]E[αMeF]VA[αMeF]VV[αMeK]GG-NH2
modifications: N-terminus assumed
SMILES: CC(C)[C@H](NC(=O)[C@H](CCC(=O)O)NC(=O)[C@H](CO)NC(=O)[C@H](CO)NC(=O)[C@](C)(Cc1ccccc1)NC(=O)[C@H](CO)NC(=O)CNC(=O)[C@H](CCC(=O)O)NC(=O)C(C)(C)NC(=O)[C@@H](N)Cc1c[nH]cn1)C(=O)N[C@@H](CO)C(=O)N[C@@H](CO)C(=O)N[C@@](C)(Cc1ccccc1)C(=O)N[C@H](C(=O)N[C@@H](CCC(=O)O)C(=O)NCC(=O)N[C@@H](CCC(=O)O)C(=O)N[C@@H](C)C(=O)N[C@@H](C)C(=O)N[C@@](C)(CCCCN)C(=O)N[C@@H](CCC(=O)O)C(=O)N[C@@](C)(Cc1ccccc1)C(=O)N[C@H](C(=O)N[C@@H](C)C(=O)N[C@@](C)(Cc1ccccc1)C(=O)N[C@H](C(=O)N[C@H](C(=O)N[C@@](C)(CCCCN)C(=O)NCC(=O)NCC(N)=O)C(C)C)C(C)C)C(C)C)C(C)C
B7: SEQ ID NO 77 (peptide)
peptide: H[Aib]EGS[αMeF]TSDV[αMeS]S[αMeF]LEGEAA[αMeK]E[αMeF]K([γGlu-Palmitoyl])A[αMeF]VV[αMeK]GG-NH2
modifications: N-terminus assumed
SMILES: CCCCCCCCCCCCCCCC(=O)N[C@@H](CCC(=O)NCCCC[C@H](NC(=O)[C@](C)(Cc1ccccc1)NC(=O)[C@H](CCC(=O)O)NC(=O)[C@](C)(CCCCN)NC(=O)[C@H](C)NC(=O)[C@H](C)NC(=O)[C@H](CCC(=O)O)NC(=O)CNC(=O)[C@H](CCC(=O)O)NC(=O)[C@H](CC(C)C)NC(=O)[C@](C)(Cc1ccccc1)NC(=O)[C@H](CO)NC(=O)[C@](C)(CO)NC(=O)[C@@H](NC(=O)[C@H](CC(=O)O)NC(=O)[C@H](CO)NC(=O)[C@@H](NC(=O)[C@](C)(Cc1ccccc1)NC(=O)[C@H](CO)NC(=O)CNC(=O)[C@H](CCC(=O)O)NC(=O)C(C)(C)NC(=O)[C@@H](N)Cc1c[nH]cn1)[C@@H](C)O)C(C)C)C(=O)N[C@@H](C)C(=O)N[C@@](C)(Cc1ccccc1)C(=O)N[C@H](C(=O)N[C@H](C(=O)N[C@@](C)(CCCCN)C(=O)NCC(=O)NCC(N)=O)C(C)C)C(C)C)C(=O)O

Each binder was assayed against GLP-1 receptor (human, UniProt P43220 24-463) (assay: cell-based or functional assay).

Row | Primary assay EC50 (cAMP), Mean pM GLP-1R [pM] | Primary assay EC50 (cAMP), n1 [nM] | Primary assay EC50 (cAMP), n2 [nM] | Binder
1 | 1.7 | 0.002 | 0.0014 | B1
2 | 2.1 | 0.0023 | 0.002 | B2
3 | 32 | 0.032 | 0.032 | B3
4 | 90 | 0.087 | 0.093 | B4
5 | 7.2 | 0.0084 | 0.006 | B5
6 | 2100 | 2.1 | 2.1 | B6
7 | 1860 | 1.9 | 1.8 | B7

Each binder was assayed against glucagon receptor (human, UniProt P47871 26-477) (assay: cell-based or functional assay).
Sequence of glucagon receptor (P47871 26-477): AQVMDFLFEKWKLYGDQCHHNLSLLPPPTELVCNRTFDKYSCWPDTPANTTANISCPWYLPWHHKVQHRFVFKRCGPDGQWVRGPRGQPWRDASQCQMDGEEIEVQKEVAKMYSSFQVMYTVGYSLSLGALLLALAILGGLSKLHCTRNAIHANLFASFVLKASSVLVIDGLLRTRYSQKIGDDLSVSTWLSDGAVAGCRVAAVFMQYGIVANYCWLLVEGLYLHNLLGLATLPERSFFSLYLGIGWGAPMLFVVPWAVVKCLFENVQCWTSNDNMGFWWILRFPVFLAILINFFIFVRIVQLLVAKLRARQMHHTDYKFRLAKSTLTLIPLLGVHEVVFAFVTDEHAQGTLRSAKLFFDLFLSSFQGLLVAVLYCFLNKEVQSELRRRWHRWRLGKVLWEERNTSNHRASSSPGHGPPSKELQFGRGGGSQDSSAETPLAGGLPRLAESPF

Row | Primary assay EC50 (cAMP), n1 [nM] | Primary assay EC50 (cAMP), n2 [nM] | Binder
8 | 28 | 28 | B1
9 | 28 | 28 | B2
10 | 100 | 100 | B3
11 | 100 | 100 | B4
12 | 27 | 27 | B5
13 | 10 | 13 | B6
14 | 28 | 28 | B7

Each binder was assayed against T1, glucose-dependent insulinotropic … (assay: cell-based or functional assay).

Row | Primary assay EC50 (cAMP), n1 [nM] | Primary assay EC50 (cAMP), n2 [nM] | Binder
15 | 28 | 28 | B1
16 | 28 | 28 | B2
17 | 100 | 100 | B3
18 | 100 | 100 | B4
19 | 27 | 27 | B5
20 | 45 | 45 | B6
21 | 28 | 28 | B7
